Reference: the supplement of paper PMC12042874
± gives the uncertainty stated by the source.

Assay: amyloid nucleation score (Sup35N fusion, yeast selection) (log enrichment); library NNK3; higher = more nucleation; inactive = no reads after selection
In short: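 Nucleation score: DiMSum log enrichment of output over input reads, centred on the mode score of non-aggregating sequences. Only sequences with at least 100 input reads were kept. Reads came from Illumina sequencing of plasmid inserts before and after 7 days of growth at 30°C without adenine and uracil, in psi-negative yeast expressing Sup35N fused to peptides of 20 random codons after 24 hours of induction with 100 μM copper sulfate.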

Row | Substance | amyloid nucleation score
1 | STQTGASRRENSPMGLGYNS | inactive
2 | STQTLEKNDVWGFLHSYWCR | 0.128 ± 0.41
3 | STSFNIRIFMYKFAYF | 1.31 ± 0.095
4 | STSVVELVNLVDDLRLNLSR | inactive
5 | STTVLQQSLLKNKNLSWDAS | inactive
6 | STVRVWHCLFFFLIGVHNCC | inactive
7 | SVALYVPLQSYSQQFLEVAT | inactive
8 | SVAVRWKAYVMVLSEHSPRG | inactive
9 | SVDGDLAEDNMLMVSFSIGK | 0.128 ± 0.54
10 | SVDYDMARSVGCPFWSPKRV | inactive
11 | SVERFIMPC | inactive
12 | SVGEKGN | inactive
13 | SVGMFSVESLVLVKLRLWNL | inactive
14 | SVGRQSLYDL | 0.285 ± 0.24
15 | SVHPGTRG | inactive
16 | SVIARVVRPMLRCKVSSMSM | inactive
17 | SVILNLMRRWPRKHEVKDAC | inactive
18 | SVIMFINRIPGSNPL | inactive
19 | SVKLLSVTSCDGGRAWWQGG | inactive
20 | SVNCHHLPNLHCWKYTKVEY | inactive
21 | SVNHKFVSDCIFGRATMEVR | -0.263 ± 0.9
22 | SVNPAKHVMCKRAPGCGKLH | inactive
23 | SVNTLLALRV | inactive
24 | SVPMVLFRASLVMYGLMLSQ | 0.835 ± 0.12
25 | SVRGITQLSSTLHVRLVITS | inactive
26 | SVRRQHPFN | inactive
27 | SVSASRSEVTRE | -0.146 ± 0.64

Row | Substance | amyloid nucleation score
28 | SVSTGVKIACTPTIVDRQLG | inactive
29 | SVTFSHVRTSRIRCGIMVYP | inactive
30 | SVTFTSSVLYEGSKVSAFLL | inactive
31 | SVTLLFLKLYIR | inactive
32 | SVYCSCISFGPTSKILVIMD | 2.34 ± 0.088
33 | SVYCYEAS | inactive
34 | SVYLT | inactive
35 | SVYLTHSLFLRQLVGYLVHL | inactive
36 | SVYRSRSHRVFWEFLSGAT | inactive
37 | SVYSITSCMHGVAQSEVMFD | 1.1 ± 0.16
38 | SWCLERHGTRWSEFNYGPSS | inactive
39 | SWITHSIGSDTATGYETFFN | inactive
40 | SWLCPFNGA | inactive
41 | SWLFHRYFVGSYCVLMDMRV | inactive
42 | SWQMWYWLLVKSMPCMLHHF | inactive
43 | SWRASVYFITWDW | inactive
44 | SWSANSCFVRIEKISLHNVG | inactive
45 | SWTFQHIWVRHSRSPCKAGR | inactive
46 | SWTFRTLSKCVYYSFCREMD | inactive
47 | SWVYGSSDPSRVSSCLVGVL | inactive
48 | SWYESKFVAVRWWIGDPLRG | 0.703 ± 0.26
49 | SYAQGH | 0.901 ± 0.18
50 | SYEHFRWLYHVFKVARFFFL | inactive
51 | SYFTVHHSCLGHTTQHVMLS | inactive
52 | SYGNCSSMHGPVKMLRICHQ | inactive
53 | SYLNRPWD | inactive
54 | SYNGYRSGLFGYGSTVSFIS | inactive

Row | Substance | amyloid nucleation score
55 | SYRKEFSVPMATGDDSTPQH | inactive
56 | SYRRIGHMRTKLGQVVR | inactive
57 | SYSDRGCVGMNVLSVFEGWD | inactive
58 | SYSKVCRSKRQI | 0.185 ± 0.71
59 | SYSTARDSVGLSSWSSLIKW | inactive
60 | SYTSMFPRCQKIHLRQVRIS | inactive
61 | SYYITLHWIVASGSYSADNT | 0.454 ± 0.14
62 | TACLSVQMWFRFSVFSGVYL | inactive
63 | TAIRIMMRV | inactive
64 | TAIVIMTYYTIRGFRTIGMW | -0.174 ± 0.22
65 | TAKMSRVYCCCFSLFDVSLK | inactive
66 | TAKSSGINDRLTQRI | inactive
67 | TALAEQ | -0.402 ± 1.3
68 | TAMCQSLGPTATTLTGVSWG | inactive
69 | TARPSNKMNHRECCTNKFFP | inactive
70 | TASPCFNSYLKNFVLGLPTT | inactive
71 | TASVLNYFSGFWRGV | 1.04 ± 0.17
72 | TASVRVRFPLSFTPCLEVHP | inactive
73 | TCISFYETVAL | inactive
74 | TCLLFVTHFNWYNTLVEGTI | 0.989 ± 0.15
75 | TCLWGYALFICMNSRWGMRW | inactive
76 | TCSHVYQTYAVKAASKNIMI | inactive
77 | TCSRIQLISNWFRVQLKSNV | inactive
78 | TCSYANHMSKVFEVVMV | inactive
79 | TCTAFQMHI | 0.007 ± 0.68
80 | TDKAICISLFRVIRLYAYAK | inactive
